One series deals with DrLigA (Deinococcus radiodurans, UniProt Q9RSQ5 1-700). Description: EMSA; 5 mM MgSO4, 5 mM MnSO4, 300 µM NAD+; 100 nM DNA, tight at 10-fold protein; 20 mM Bis-Tris pH 6.0, 5 mM MgSO4, 5 mM MnSO4, 300 µM NAD+, 25% glycerol; 100 nM DNA; 15 min at room temperature; 6% PAGE, 1x TBE, 4 °C.
The next series deals with DrLigAΔBRCT (Deinococcus radiodurans, UniProt Q9RSQ5 1-600). Description: EMSA; 5 mM MgSO4, 5 mM MnSO4, 300 µM NAD+; no complex up to 1:10 DNA:protein (100 nM DNA); 20 mM Bis-Tris pH 6.0, 5 mM MgSO4, 5 mM MnSO4, 300 µM NAD+, 25% glycerol; 100 nM DNA; 15 min at room temperature; 6% PAGE, 1x TBE, 4 °C.

B1: single nicked 40 nt dsDNA (Template T + N1 + N2) (dsDNA)
DNA 1: ATTGAGTGGACAAAGTATCGTAGGGTAGTATTGGTGGATA
DNA 2: TATCCACCAATACTACCCTA
DNA 3: CGATACTTTGTCCACTCAAT
modifications: none; 5' end at nick not phosphorylated
In the case of B1, the binding result in the series with DrLigA is “binds”; with DrLigAΔBRCT, “no binding”.

B2: 1 nt gapped 40 nt dsDNA (Template T + G1 + G2) (dsDNA)
DNA 1: B1 DNA 1
DNA 2: TATCCACCAATACTACCCTAC
DNA 3: ATACTTTGTCCACT
modifications: none; 5' end at gap not phosphorylated
B2: the binding result with DrLigA is “binds”; in the series with DrLigAΔBRCT it was “no binding”.

B3: single nick with 10 nt 5'-flap 40 nt dsDNA (Template T + F1 + N2) (dsDNA)
DNA 1: B1 DNA 1
DNA 2: TATCCACCAATACTACCCTA
DNA 3: TAACGCTGGGCGATACTTTGTCCACTCAAT
modifications: none; 5' end of flap not phosphorylated
Take B3: the binding result with DrLigAΔBRCT is given as “no binding”.

Source of the values: PMC10504179.
